Residue numbers refer to the chain shown, from its start.
B1: Antibody 1 IgG2 (antibody, V domains shown)
VH: QVQLQQSGPRLVKPSQTLSLTCTVSGGSISSGGYYWSWIRQPAGKGLEWIGSIYYSGSTYYNPSLKSRVTISGDTPKNQFSLKLSSVTAADTAVYYCARTPAYDGDARADFFDVWGRGTLVTVSS
VL: DIVMTQSPSTLSASVGDRVTITCRASQGISSWLAWYQQKPGRAPKVLIYKASTLESGVPSRFSGSGSGTDFTLTISSLQPEDFATYYCQQSYSTPWTFGQGTKLEIK
notes: Whole human IgG2 heavy chain and human kappa light chain (vectors pEU9.2 and pEU3.4)
B2: Antibody 12 GL IgG2 (antibody, V domains shown)
VH: QVQLQESGPGLVKPSETLSLTCTVSGGSISADGYYWSWIRQPPGKGLEWIGSLYYSGSTYYNPSLKGRVTISGDTSKNQFSLKLSSVTAADTAVYYCARTPAYFGQDRTDFFDVWGRGTLVTVSS
VL: B1 VL with V3Q, R42K, D70E, E81D, Y92H, S93H, T94P
notes: Germlined; whole human IgG2, kappa light chain
B3: Antibody 12 GL IgG1TM (antibody, V domains shown)
VH: B2 VH
VL: B1 VL with V3Q, R42K, D70E, E81D, Y92H, S93H, T94P
notes: Human IgG1 (gamma 1 (f)) constant domains with three single amino acid substitutions (TM, Oganesyan et al 2008) and human kappa Km3 light chain constant domain; Expressed in CHO cells; also called germlined Antibody 12 IgG1TM
B4: Antibody 1 scFv (scFv, V domains shown)
VH: B1 VH
VL: B1 VL
notes: also called purified scFv Antibody 1

Experiments:
[1] = target: T1, recombinant Rhesus Macaque IL-18 (Rhesus Macaque, UniProt Q9BGI5 37-193); test: HTRF receptor-ligand competition: Rhesus Macaque IL-18 (1.5 nM) with Eu-cryptate human IL-18Rα and biotinylated human IL-18Rβ
T1 construct: Bought; also called Rhesus m; IL-18

[2] = target: T2, human IL-1F7/FIL1zeta (human, UniProt Q9NZH6-2 27-192, limits assumed); test: SPR (BIAcore 2000), IgG amine-coupled to CM3 chip
T2 construct: Bought
T2 sequence (looked up): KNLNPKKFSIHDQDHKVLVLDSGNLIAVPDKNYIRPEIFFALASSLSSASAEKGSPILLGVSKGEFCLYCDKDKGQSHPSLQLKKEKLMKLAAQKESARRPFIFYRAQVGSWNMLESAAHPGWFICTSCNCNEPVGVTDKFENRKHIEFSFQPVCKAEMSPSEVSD

[3] = target: T3, recombinant rat IL-18 (rat, UniProt P97636 37-194); test: SPR (BIAcore 2000), IgG amine-coupled to CM3 chip
T3 construct: Bought
T3 sequence (looked up): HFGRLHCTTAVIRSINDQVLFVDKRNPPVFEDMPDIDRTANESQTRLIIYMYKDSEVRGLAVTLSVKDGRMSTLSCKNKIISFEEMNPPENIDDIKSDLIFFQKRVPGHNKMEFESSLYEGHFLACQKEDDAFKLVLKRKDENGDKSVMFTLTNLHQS

[4] = target: T4, human IL-1beta (human, UniProt P01584 117-269); test: SPR (BIAcore 2000), IgG amine-coupled to CM3 chip
T4 construct: Bought; also called Human IL-1β

[5] = target: T5, recombinant human IL-18 (human, UniProt Q14116 37-193); test: HTRF receptor-ligand competition: human IL-18 with Eu-cryptate IL-18Rα and biotinylated IL-18Rβ
T5 construct: Mostly in-house, E. coli-derived, tag removed by Factor Xa; In some assays labelled with Europium cryptate or biotin on free cysteines; Also used here for endogenous human IL-18 in the PBMC assay; also called huIL-18; Interleukin-18

[6] = target: T5, recombinant human IL-18; test: SPR (BIAcore 2000), IgG amine-coupled to CM3 chip, IL-18 as analyte, 1:1 Langmuir
[7] = target: T5, recombinant human IL-18; test: cell-based or functional assay
[8] = target: T6, human IL-18-FH (baculovirus-produced IL-18 containing FLAG and His tags) (human, UniProt Q14116 37-193); test: HTRF competition of IL-18BPa-Fc binding to FLAG/His-tagged human IL-18
T6 construct: not shown: N-terminal Flag tag and histidine tag

[9] = target: T7, mouse IL-18 (mouse, UniProt P70380 36-192); test: SPR, IgG amine-coupled to CM5 chip
T7 sequence (looked up): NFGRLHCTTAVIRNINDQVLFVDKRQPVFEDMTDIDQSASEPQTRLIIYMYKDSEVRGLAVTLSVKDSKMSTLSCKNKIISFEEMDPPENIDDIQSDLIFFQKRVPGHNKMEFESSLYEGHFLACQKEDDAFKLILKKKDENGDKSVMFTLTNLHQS

[10] = target: T2, human IL-1F7/FIL1zeta; test: SPR, IgG amine-coupled to CM5 chip
[11] = target: T3, recombinant rat IL-18; test: SPR, IgG amine-coupled to CM5 chip
[12] = target: T4, human IL-1beta; test: SPR, IgG amine-coupled to CM5 chip
[13] = target: T5, recombinant human IL-18; test: cell-based or functional assay; remark: listed apart in the source
[14] = target: T5, recombinant human IL-18; test: SPR (BIAcore), IgG amine-coupled to CM3 or CM5 chip, IL-18 as analyte, 1:1 Langmuir
[15] = target: T1, recombinant Rhesus Macaque IL-18; test: as above
[16] = target: T5, recombinant human IL-18; test: cell-based or functional assay; remark: listed apart in the source
[17] = target: T1, recombinant Rhesus Macaque IL-18; test: cell-based or functional assay
[18] = target: T5, recombinant human IL-18; test: cell-based or functional assay; remark: listed apart in the source
[19] = target: T1, recombinant Rhesus Macaque IL-18; test: cell-based or functional assay; remark: listed apart in the source
[20] = target: cynomolgus monkey IL-18 (cynomolgus monkey, UniProt A0A2K5TJ84 37-193); test: cell-based or functional assay
[21] = target: T5, recombinant human IL-18; test: HTRF receptor-ligand competition: human IL-18 with Eu-cryptate IL-18Rα and biotinylated IL-18Rβ; purified scFv

| Binder | binding result [9] | binding result [11] | IC50, IFNγ release by human PBMC stimulated with LPS and IL-12 (endogenous IL-18) [13] [nM] | Kd [14] [nM] | koff [14] [s⁻¹] | kon [14] [M⁻¹ s⁻¹] | Kd [15] [nM] | koff [15] [s⁻¹] | kon [15] [M⁻¹ s⁻¹] | IC50, IFNγ release KG-1 cell assay, human IL-18 [16] [nM] | IC50, IFNγ release KG-1 cell assay, Rhesus Macaque IL-18 [17] [nM] | further results |
| --- | --- | --- | --- | --- | --- | --- | --- | --- | --- | --- | --- | --- |
| B1 |  |  |  |  |  |  |  |  |  |  |  | IC50 [1]: 5.4 nM; binding result [2]: no binding (tested: 200 nM); binding result [3]: no binding (tested: 200 nM); binding result [4]: no binding (tested: 200 nM); IC50 [5]: 2.9 nM; Kd [6]: 9.96 nM; koff [6]: 0.00732 s⁻¹; kon [6]: 735000 M⁻¹ s⁻¹; IC50, inhibition of IFNγ release by KG-1 cells stimulated with human IL-18 and TNFα [7]: 258 nM |
| B2 | no binding | no binding | 0.32 | 0.092 | 8.16e-05 | 885000 | 0.046 | 4.79e-05 | 1.05e+06 | 0.202 | 0.285 | IC50 [8]: 0.2 nM; binding result [10]: no binding; binding result [12]: no binding |
| B3 | no binding | no binding | 0.15 | 0.0629 | 2.9e-05 | 460000 | 0.0547 | 3.5e-05 | 630000 | 0.08 | 0.461 | IC50, inhibition of IL-18-induced CD11b up-regulation on human neutrophils (flow cytometry) [7]: 2.03 nM; IC50, inhibition of IL-18-mediated enhancement of fMLFF-induced ROS production in human neutrophils (flow cytometry) [7]: 0.2 nM; KD (pM), Schild analysis in the KG-1 IFNγ release cell assay [18]: 71 pM; KD (pM), Schild analysis in the KG-1 IFNγ release cell assay [19]: 142 pM; IC50, IFNγ release by cynomolgus monkey PBMC stimulated with LPS and IL-12 (endogenous IL-18) [20]: 0.28 nM |
| B4 |  |  |  |  |  |  |  |  |  |  |  | IC50 [21]: 12 nM |
